Assay results as given in patent US20120269815A1, “NEUROTROPHINS AND USES THEREOF” (Regents of the University of Minnesota, priority 2008, published 2012).

What was measured:
[1] = tested on: TUF1 expression in adrenal glomerulosa cell dispersion; assay: Angiotensin II stimulation of adrenal glomerulosa cell dispersion (qPCR); type: cell-based, rat; conditions: overnight incubation, 5-500 ng/mL
Protocol: Adrenal glands were dissected from adult Sprague-Dawley rats (280 g-300 g) and kept in cold PBS. Following fat removal, adrenal capsules were detached and placed into a few drops of dispersion media (DMEM, 1.0 g/L glucose, 0.32% collagenase (type I, GIBCO, Life Technologies Corp., Carlsbad, Calif.), 4% BSA (Sigma-Aldrich Co., St. Louis, Mo.), 0.1% DNAse (Sigma-Aldrich Co., St. Louis, Mo.). Adrenal capsules were then minced with surgical scissors, transferred to dispersion media and incubated for 90 minutes in a 37° C. and 10% CO2 cell culture incubator with trituration at 15 minute intervals. Dispersed cells were filtered through a 100 μm wire mesh into wash media (DMEM, 0.4% BSA, 0.28% HEPES) and centrifuged at 200×g for 5 minutes. Following supernatant removal, cells were rinsed in wash media and resuspended in incubation media (wash media+7.65 mM CaCl2). Dissociated cells were seeded at 75,000 cells/well in a 24-well plate and incubated at 37° C. and 10% CO2 prior to stimulation. […]
Following overnight incubation, total RNA was isolated from capsular/glomerulosa cells using an RNA-isolation kit (Zymo Research Corp., Orange, Calif.) and concentrations were measured by absorbance at 260 nm ([…]) using a NanoDrop ND-1000 (NanoDrop Technologies, Inc., Wilmington, Del.). […]

p75^NTR = biological target: T1, p75^NTR (Homo sapiens, UniProt P08138); assay: Fluorescence-labeled TUF1 peptide binding to COS7 cells expressing p75NTR; conditions: labeled peptide 5 nM, 90 min, COS7 cells transfected with pCMV-SPORT6-p75
T1 construct: host or cells: COS7
T1 sequence (P08138 29-427): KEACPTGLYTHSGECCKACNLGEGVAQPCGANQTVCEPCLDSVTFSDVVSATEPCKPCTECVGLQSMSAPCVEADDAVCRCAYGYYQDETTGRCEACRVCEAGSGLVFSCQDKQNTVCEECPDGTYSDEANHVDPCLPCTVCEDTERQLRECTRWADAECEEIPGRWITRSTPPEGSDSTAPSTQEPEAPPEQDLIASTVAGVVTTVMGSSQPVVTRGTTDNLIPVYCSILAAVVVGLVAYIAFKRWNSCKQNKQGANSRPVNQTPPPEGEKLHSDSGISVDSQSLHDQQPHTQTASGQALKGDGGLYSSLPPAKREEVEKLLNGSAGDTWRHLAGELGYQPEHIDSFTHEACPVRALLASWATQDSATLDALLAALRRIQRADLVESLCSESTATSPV
Protocol: COS7 cells were seeded at 10,000 cells/well onto a 18 mm coverslip in a 12-well plate. Cells were allowed to settle overnight in a cell culture incubator (NuAire NU-8600, NuAire, Inc., Plymouth, Minn.) set at 37° C. and 5% CO2. Cells were transfected with pCMV-eGFP (Clontech Laboratories, Inc., Mountain View, Calif.) or pCMV-SPORT6-p75 (ATCC) using Fugene HD (Roche Diagnostics Corp., Indianapolis, Ind.) and were incubated overnight. The binding assays were carried out according to Horton et al. with modifications. Synthetic TUF1 peptides (TUF1[43-54] (SEQ ID NO:1) and TUF1[24-40] (SEQ ID NO:3) were generated (via Sigma Genosys, Sigma-Aldrich Co. St. Louis, Mo.) and were conjugated per manufacturer's recommendation with DyLight 549 NHS Ester (Thermo Fisher Scientific, Waltham, Mass.), which have similar spectra to Cy3 dye. Unconjugated dye was removed with a dye removal column (Thermo Fisher Scientific, Waltham, Mass.). Labeled peptides were diluted to 5 nM in 0.15 M Sucrose/PBS and added (1.0 ml/well) to transfected COS7 cells. The binding reaction was incubated in the dark at room temperature for 90 minutes. Cells were rinsed thoroughly with PBS+0.05% Tween-20 to remove unbound peptide. Cells were then fixed with 4% Paraformaldehyde (5 minutes).
Following fixation, cells were permeabilized in PBS+0.1% Tween-20 for 10 minutes, rinsed thoroughly with PBS, and blocked in BSA (10 mg/ml) for 10 minutes. Cells were incubated with rabbit anti-p75^NTR antibody (1:10,000 dilution) for 30 minutes. Excess antibody was removed with PBS washes. Cells were then incubated with Alexa-488 goat anti-rabbit antibody (1:500 dilution, Invitrogen). Cells were again rinsed thoroughly with PBS and mounted in Vectashield mounting media plus DAPI (Vector Laboratories, Inc., Burlingame, Calif.).
COS7 cells were seeded at 10,000 cells/well onto an 18 mm coverslip in a 12-well plate. Cells were allowed to settle overnight in a cell culture incubator (NuAire NU-8600, NuAire, Inc., Plymouth, Minn.) set at 37° C. and 5% CO2. Cells were transfected with pCMV-eGFP (Clontech Laboratories, Inc., Burlingame, Calif.) or pCMV-SPORT6-p75 (ATCC) using Fugene HD (Roche Diagnostics Corp., Indianapolis, Ind.) and were incubated overnight. The binding assays were carried out according to Horton et al. with modifications. Synthetic TUF1 peptides (TUF1[43-54] (SEQ ID NO:1) and TUF1[24-40] (SEQ ID NO:3)) were generated (via Sigma Genosys, Sigma-Aldrich, St. Louis, Mo.) and were conjugated per manufacturer's recommendation with DyLight 549 NHS Ester (Thermo Fisher Scientific Inc., Waltham, Mass.), which have similar spectra to Cy3 dye. Unconjugated dye was removed with a dye removal column (Thermo Fisher Scientific Inc., Waltham, Mass.). Labeled peptides were diluted to 5 nM in 0.15M Sucrose/PBS and added (1.0 ml/well) to transfected COS7 cells. The binding reaction was incubated in the dark at room temperature for 90 min. Cells were rinsed thoroughly with PBS+0.05% Tween-20 to remove unbound peptide. Cells were then fixed with 4% Paraformaldehyde (5 minutes).
Following fixation, cells were permeabilized in PBS+0.1% Tween-20 for 10 minutes, rinsed thoroughly with PBS, and blocked in BSA (10 mg/ml) for 10 minutes. Cells were incubated with rabbit anti-p75^NTR antibody (1:10,000 dilution) for 30 minutes. Excess antibody was removed with PBS washes. Cells were then incubated with Alexa-488-goat anti-rabbit antibody (1:500 dilution, Invitrogen Corp., Carlsbad, Calif.). […]

Row | Substance | TUF1 expression [1] | binding to p75^NTR (p75^NTR) | binding to p75^NTR (p75^NTR; listed as TUF1^24-40)
1 | Angiotensin II (DRVYIHPF; Angiotensin-2; UniProt P01019 25-32, looked up) [angiotensin II (Sigma-Aldrich) used to stimulate adrenal glomerulosa cells] | activates TUF1 expression | – | –
2 | TUF1[24-40]: synthetic TUF1 peptide, SEQ ID NO:3, without similarity to neurotrophic factors (NGF and BDNF) (GTIKLTPRLSKDAYSEM; Artifical sequence; TUF1 polypeptide) | – | did not bind cells expressing p75^NTR | did not bind the p75^NTR
